We go through 4 molecules from article PMC6141617 (Nature Communications, 2018).

For one series, the target named is T1, 14-3-3β (purified alone) (human, UniProt P31946 1-239).
T1 construct: also called YWHAB (pTvHR21-SGC)
T1 sequence: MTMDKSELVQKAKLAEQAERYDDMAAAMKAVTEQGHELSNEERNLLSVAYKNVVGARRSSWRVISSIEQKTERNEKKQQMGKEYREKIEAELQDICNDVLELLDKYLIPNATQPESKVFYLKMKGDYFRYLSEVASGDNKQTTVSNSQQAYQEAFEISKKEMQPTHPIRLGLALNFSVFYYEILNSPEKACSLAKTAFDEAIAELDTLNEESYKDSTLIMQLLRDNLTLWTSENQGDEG
Description: fluorescence polarisation. The following applies: both partners purified.

The series “crystal structure” concerns the molecule itself. Description: crystal structure.

B1: GFP-ExoS^233-435 (domain or fragment)
chain: ADKALADGLVKRFGADAEKYLGRQPGGIHSDAEVMALGLYTGIHYADLNRALRQGQELDAGQKLIDQGMSAAFEKSGQAEQVVKTFRGTRGGDAFNAVEEGKVGHDDGYLSTSLNPGVARSFGQGTISTVFGRSGIDVSGISNYKNEKEILYNKETDMRVLLSASDEQGVTRRVLEEAALGEQSGHSQGLLDALDLASKPERS
Regarding B1, the equilibrium dissociation constant (Kd) with 14-3-3β (purified alone) was about 70 nM.

B2: GFP-ExoS^233-453 (domain or fragment)
chain: ADKALADGLVKRFGADAEKYLGRQPGGIHSDAEVMALGLYTGIHYADLNRALRQGQELDAGQKLIDQGMSAAFEKSGQAEQVVKTFRGTRGGDAFNAVEEGKVGHDDGYLSTSLNPGVARSFGQGTISTVFGRSGIDVSGISNYKNEKEILYNKETDMRVLLSASDEQGVTRRVLEEAALGEQSGHSQGLLDALDLASKPERSGEVQEQDVRLRMRGLDLA
B2 registered an equilibrium dissociation constant (Kd) in the series with 14-3-3β (purified alone) of about 40 nM.

B3: 14-3-3β truncated after N234 (untagged, re-designed co-expression construct) (domain or fragment, human, UniProt P31946 1-234, looked up)
chain: MTMDKSELVQKAKLAEQAERYDDMAAAMKAVTEQGHELSNEERNLLSVAYKNVVGARRSSWRVISSIEQKTERNEKKQQMGKEYREKIEAELQDICNDVLELLDKYLIPNATQPESKVFYLKMKGDYFRYLSEVASGDNKQTTVSNSQQAYQEAFEISKKEMQPTHPIRLGLALNFSVFYYEILNSPEKACSLAKTAFDEAIAELDTLNEESYKDSTLIMQLLRDNLTLWTSEN
On to B3, for which the “stoichiometry N” value in “crystal structure” was 2.

B4: 14-3-3β^1–239 (untagged, first co-expression construct) (natural protein)
chain: MTMDKSELVQKAKLAEQAERYDDMAAAMKAVTEQGHELSNEERNLLSVAYKNVVGARRSSWRVISSIEQKTERNEKKQQMGKEYREKIEAELQDICNDVLELLDKYLIPNATQPESKVFYLKMKGDYFRYLSEVASGDNKQTTVSNSQQAYQEAFEISKKEMQPTHPIRLGLALNFSVFYYEILNSPEKACSLAKTAFDEAIAELDTLNEESYKDSTLIMQLLRDNLTLWTSENQGDEG
As for B4, the “stoichiometry N” value in the series “crystal structure” worked out at 2.

As a reminder, the Kd is the constant that tells how readily two partners part at equilibrium. Low values mean higher affinity, high ones lower affinity. Usually stoichiometry N stands for a count of units in the complex or per binding partner.
